Assay results reported in US11938198B2, “Treatment of heart disease by disruption of the anchoring of PP2A” (University of Miami, priority 2019, dated 2024).

Assays:
[1] = system: T1, myc-tagged rat mAKAP 1286-2083 (lacking the PP2A binding site)
T1 sequence: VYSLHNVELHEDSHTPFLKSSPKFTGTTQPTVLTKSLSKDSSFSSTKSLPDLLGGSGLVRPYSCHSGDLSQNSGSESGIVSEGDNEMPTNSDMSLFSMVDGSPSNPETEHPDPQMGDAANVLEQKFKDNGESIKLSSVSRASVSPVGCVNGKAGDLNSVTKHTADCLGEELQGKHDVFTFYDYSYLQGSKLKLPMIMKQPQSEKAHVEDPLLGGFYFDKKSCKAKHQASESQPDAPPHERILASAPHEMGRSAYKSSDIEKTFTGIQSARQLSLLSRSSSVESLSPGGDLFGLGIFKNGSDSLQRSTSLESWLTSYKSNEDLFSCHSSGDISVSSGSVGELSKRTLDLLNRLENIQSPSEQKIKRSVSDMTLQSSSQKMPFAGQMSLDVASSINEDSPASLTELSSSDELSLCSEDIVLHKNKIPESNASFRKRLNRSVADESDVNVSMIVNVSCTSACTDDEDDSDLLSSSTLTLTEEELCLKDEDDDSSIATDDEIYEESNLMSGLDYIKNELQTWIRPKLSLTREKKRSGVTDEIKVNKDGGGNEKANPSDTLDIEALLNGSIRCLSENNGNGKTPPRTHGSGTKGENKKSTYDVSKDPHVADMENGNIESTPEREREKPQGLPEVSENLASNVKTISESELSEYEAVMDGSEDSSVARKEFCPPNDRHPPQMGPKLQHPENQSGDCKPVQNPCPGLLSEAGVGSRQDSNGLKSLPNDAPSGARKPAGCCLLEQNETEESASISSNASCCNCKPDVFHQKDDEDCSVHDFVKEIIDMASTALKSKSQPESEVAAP

[2] = system: endogenous rat mAKAPβ (native mAKAP of adult rat heart extracts and neonatal rat ventricular myocytes)
[3] = system: T2, myc-tagged rat mAKAP PP2A Binding Domain (myc-PBD, rat mAKAP aa 2134-2314)
T2 sequence: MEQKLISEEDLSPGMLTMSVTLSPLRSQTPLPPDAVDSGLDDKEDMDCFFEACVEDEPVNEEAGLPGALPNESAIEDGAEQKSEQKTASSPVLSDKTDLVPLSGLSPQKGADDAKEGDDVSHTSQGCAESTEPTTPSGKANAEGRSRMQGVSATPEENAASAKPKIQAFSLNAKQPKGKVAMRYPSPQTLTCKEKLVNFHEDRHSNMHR

[4] = molecular target: PP2A endogenous in HEK293 cells, detected as PP2A-C subunit or as okadaic acid-sensitive phosphatase activity; test: cell-based or functional assay
[5] = molecular target: T3, myc-tagged, green fluorescent protein (GFP) RBD-fusion protein (mAKAP aa 1694-1833)
T3 chain: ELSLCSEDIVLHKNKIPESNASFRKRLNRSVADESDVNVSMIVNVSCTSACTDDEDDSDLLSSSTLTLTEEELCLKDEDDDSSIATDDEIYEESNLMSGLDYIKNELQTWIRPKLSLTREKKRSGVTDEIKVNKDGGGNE

[6] = system: adult rat ventricular myocytes (ARVM); test: ARVM morphologic hypertrophy (cell width and length by immunocytochemistry); type: cell-based; settings: adenoviral expression, no drug
Procedure: Adult rat ventricular myocyte isolation and culture: 2-3 month old rats were anesthetized using Ketamine (80-100 mg/kg) and Xylazine (5-10 mg/kg) IP following 1000 U heparinization for cardiac excision. The heart was transferred immediately into chilled perfusion buffer (NaCl 120 mM, KCl 5.4 mM, Na2HPO4·7H2O 1.2 mM, NaHCO320.0 mM, MgCl2·6H2O 1.6 mM, Taurine 5 mM, Glucose 5.6 mM, 2,3-Butanedione monoxime 10 mM) pre-equilibrated with 95% O2 and 5% CO2. After removal of extraneous tissue, the heart was attached via the aorta to a Harvard Langendorff apparatus cannula. Ca^2+-free perfusion was used to flush out remaining blood with a constant rate of 8-10 mL/min at 37° C. The heart was then digested through circulatory perfusion with 50 mL perfusion buffer containing 125 mg type II collagenase (Worthington, 245 U/mg), 0.1 mg protease (Sigma type XIV) and 0.1% BSA. After perfusion, the atria were removed and the ventricular myocytes dissociated by slicing and repetitive pipetting. The debris was filtered by a 200 μm nylon mesh, and the myocytes collected by one minute centrifugation at 50 g. Ca^2+ concentration in the buffer was gradually recovered to 1.8 mM and the myocytes were resuspended in ACCT medium (M199 Medium (Invitrogen 11150-059), Creatine 5 mM, L-carnitine 2 mM, Taurine 5 mM, HEPES 25 mM, 2,3-Butanedione monoxime 10 mM, BSA 0.2% and 1×Insulin-Transferrin-Selenium Supplement) and plated on 10 μg/ml laminin pre-coated dishes. Cells were washed with ACCT medium 1.5 hours after plating and subjected to adenoviral infection or siRNA transfection, in which 100-200 Multiplicity of Infection (MOI) of adenovirus and 100 nmol/L siRNA mixed with Dharmafect1 (Dharmacon) were used, respectively. Adrenergic agonists were added the next day, with biochemical assay and morphological measurement performed after 24 hours of stimulation.
Immunocytochemistry: Myocytes on coverslips were fixed in 3.7% formaldehyde in PBS for 1 hour, permeabilized with 0.3% Triton X-100, and blocked in PBS containing 0.2% BSA and 1% horse serum. The slides were then sequentially incubated for 1 hour with primary and Alexa fluorescent dye-conjugated specific-secondary antibodies (Invitrogen, 1:1000) diluted in blocking buffer. The slips were washed three times with blocking buffer. 1 μg/mL Hoechst 33258 was included in the last wash stop to label nuclei. Slides were sealed in SlowFade Gold antifade buffer (Invitrogen, S36938) for fluorescent microscopy. Wide-field images were acquired using a Leica DM4000 Microscope.

PDE4D3 Ser-54 = PDE4D3 Ser-54 phosphorylation in mAKAP immunoprecipitates from transfected HEK293 cells (phospho-specific immunoblot); type: cell-based; settings: HEK293 cells expressing PDE4D3 and mAKAP construct lacking the PP2A binding site
mAKAP-bound PDE4D3 = test: PDE activity associated with mAKAP immunoprecipitates from transfected HEK293 cells ([3H]cAMP); type: cell-based; settings: unstimulated (bar 1 and 4)
Procedure: Immunoprecipitation—HEK293 cells were used in this project as a heterologous system lacking mAKAP in which the various wildtype and mutant proteins could be easily expressed. Cells cultured on 60 mm plates were transfected at 50%-70% confluency by the calcium phosphate method, using 6 μg of each DNA construct per plate. Cells were harvested 24 hours after transfection in 0.5 ml HSE buffer (HEPES, pH 7.4, 150 mM NaCl, 5 mM EDTA, 1% Triton X-100 and protease inhibitors). Supernatants were incubated with 3 μg antibody and 15 μl prewashed protein A- or G-agarose beads. Following overnight incubation at 4° C., the immunoprecipitates were washed three times with the same buffer. Bound proteins were analyzed by immunoblotting. […]
As phosphorylation of PDE4D3 Ser-54 increases phosphodiesterase activity 2 fold (Sette and Conti 1996), whether OA treatment would also increase the activity of mAKAP-bound PDE4D3 was tested. mAKAP complexes were immunoprecipitated from transfected HEK293 cells and assayed for associated phosphodiesterase activity (FIG. 8B). mAKAP-associated phosphodiesterase activity in untreated cells was detected only when mAKAP was co-expressed with PDE4D3 (FIG. 8B, bar 1, and data not shown), consistent with a previous observation that PDE4D3 accounts for all of the phosphodiesterase activity associated with mAKAP in cardiac myocytes (Dodge et al. 2001).

PP2A = molecular target: T4, PP2A (Homo sapiens, UniProt P30153+P67775); test: myc-tag immunoprecipitation of mAKAP fragments from HEK293 cells with phosphatase assay; type: binding; settings: myc-tagged fragments expressed in HEK293 cells
T4 construct: endogenous in cells; host or cells: HEK293
T4 sequence (P67775 whole entry, the tested form may be a part): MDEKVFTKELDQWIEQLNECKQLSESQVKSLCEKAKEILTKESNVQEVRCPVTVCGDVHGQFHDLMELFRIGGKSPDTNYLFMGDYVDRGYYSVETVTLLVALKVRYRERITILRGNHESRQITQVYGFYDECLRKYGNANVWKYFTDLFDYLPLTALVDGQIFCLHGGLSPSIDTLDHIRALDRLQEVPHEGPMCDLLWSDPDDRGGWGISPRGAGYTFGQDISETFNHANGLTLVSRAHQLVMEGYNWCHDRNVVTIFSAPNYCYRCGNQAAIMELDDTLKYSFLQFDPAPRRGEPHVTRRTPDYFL
T4 sequence (P30153 whole entry, the tested form may be a part): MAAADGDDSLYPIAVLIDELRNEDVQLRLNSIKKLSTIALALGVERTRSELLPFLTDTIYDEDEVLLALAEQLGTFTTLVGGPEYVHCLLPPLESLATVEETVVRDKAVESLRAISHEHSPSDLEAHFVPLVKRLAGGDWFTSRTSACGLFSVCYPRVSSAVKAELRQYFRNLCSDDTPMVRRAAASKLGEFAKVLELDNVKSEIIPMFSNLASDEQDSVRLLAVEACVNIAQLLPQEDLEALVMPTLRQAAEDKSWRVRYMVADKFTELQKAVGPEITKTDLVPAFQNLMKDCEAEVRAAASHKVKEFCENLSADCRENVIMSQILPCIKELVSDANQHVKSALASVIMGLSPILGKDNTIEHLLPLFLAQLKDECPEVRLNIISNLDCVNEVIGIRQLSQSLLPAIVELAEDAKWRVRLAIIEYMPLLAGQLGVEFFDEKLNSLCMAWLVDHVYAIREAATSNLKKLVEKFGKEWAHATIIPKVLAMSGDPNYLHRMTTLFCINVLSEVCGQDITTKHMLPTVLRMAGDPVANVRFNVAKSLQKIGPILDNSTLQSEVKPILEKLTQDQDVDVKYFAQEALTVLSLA
Procedure: Immunoprecipitation—HEK293 cells were used in this project as a heterologous system lacking mAKAP in which the various wildtype and mutant proteins could be easily expressed. Cells cultured on 60 mm plates were transfected at 50%-70% confluency by the calcium phosphate method, using 6 μg of each DNA construct per plate. Cells were harvested 24 hours after transfection in 0.5 ml HSE buffer (HEPES, pH 7.4, 150 mM NaCl, 5 mM EDTA, 1% Triton X-100 and protease inhibitors). Supernatants were incubated with 3 μg antibody and 15 μl prewashed protein A- or G-agarose beads. Following overnight incubation at 4° C., the immunoprecipitates were washed three times with the same buffer. Bound proteins were analyzed by immunoblotting.
To measure phosphatase activity, immunoprecipitated protein complexes were washed twice in HSE buffer and once in PP2A reaction buffer. The immunoprecipitates were incubated for 30 minutes at 30° C. in 20 μl PP2A assay buffer containing 100,000 cpm [^32P]histone in the presence and absence of inhibitors. The PP2A inhibitor (Calbiochem) was used at a concentration of 30 nM. Purified I-1 was phosphorylated by PKA before using as a specific PP1 inhibitor. Reactions were terminated by the addition of 100 μl 20% TCA followed by 10 min centrifugation. TCA supernatants containing released ^32PO4 were measured by scintillation counting. […]

## PP2A endogenous in HEK293 cells, detected as PP2A-C subunit or as okadaic acid-sensitive phosphatase activity
[1]
  baseline phosphorylation of mAKAP-bound PDE4D3 Ser-54: 0.49±0.19 fold of the level obtained with OA

## endogenous PP2A of rat heart and rat ventricular myocytes, detected as PP2A catalytic subunit (PP2A-C)
[2]
  phosphatase activity associated with mAKAP immunoprecipitates from heart extracts ([32P]histone substrate): 3-fold enrichment of phosphatase activity over control IgG immunoprecipitates
[3]
  Iso-induced SRF Ser103 phosphorylation in ARVM: PBD expression potentiated the induction of SRF Ser^103 phosphorylation in ARVM stimulated with the β-adrenergic isoproterenol

## myc-tagged rat mAKAP 1286-2083 (lacking the PP2A binding site) (from UniProt Q9WVC7 1286-2083)
[4]
  PDE4D3 activity in myc-tag immunoprecipitates: 30 % higher

B1: endogenous RSK3 of rat ventricular myocytes (protein)
chain: MELNMKKFTVRRFFSVYLRKKSRSKSSSLSRLEEEGIVKEIDISSHVKEGFEKADPSQFELLKVLGQGSYGKVFLVRKVTGSDAGQLYAMKVLKKATLKVRDRVRSKMERDILAEVNHPFIVKLHYAFQTEGKLYLILDFLRGGDLFTRLSKEVMFTEEDVKFYLAELALALDHLHGLGIIYRDLKPENILLDEEGHIKITDFGLSKEAIDHDKRAYSFCGTIEYMAPEVVNRRGHTQSADWWSFGVLMFEMLTGSLPFQGKDRKETMALILKAKLGMPQFLSAEAQSLLRALFKRNPCNRLGAGVDGVEEIKRHPFFVTIDWNKLYRKEIKPPFKPAVGRPEDTFHFDPEFTARTPTDSPGVPPSANAHHLFRGFSFVASSLVQEPSQQDVPKAPIHPIVQQLHGNNIHFTDGYEIKEDIGVGSYSVCKRCVHKATDAEYAVKIIDKSKRDPSEEIEILLRYGQHPNIITLKDVYDDGKYVYLVMELMRGGELLDRILRQRCFSEREASDVLYTIARTMDYLHSQGVVHRDLKPSNILYMDESGNPESIRICDFGFAKQLRAENGLLMTPCYTANFVAPEVLKRQGYDAACDVWSLGILLYTMLAGFTPFANGPDDTPEEILARIGSGKYALSGGNWDSISDAAKDVVSKMLHVDPQQRLTAVQVLKHPWIVNREYLSQNQLSRQDVHLVKGAMAATYFALNRTPQAPRLEPVLSSSLAQRRGMKRLTSTRL
[5]
  PE-induced SRF Ser103 phosphorylation in NRVM and ARVM: inhibited PE-induced SRF Ser^103 phosphorylation in both NRVM and primary adult rat ventricular myocyte cultures
[6]
  basal ARVM morphology: selectively increased the width

B2: mAKAP 1286-2083: myc-tagged rat mAKAP 1286-2083 construct deficient in PP2A binding (protein)
chain: T1 sequence
modifications: left off: small tags and cut ends
PDE4D3 Ser-54
  baseline phosphorylation of mAKAP-bound PDE4D3, fold of the level obtained with OA: 0.49±0.19 fold
mAKAP-bound PDE4D3
  PDE4D3 activity higher in immunoprecipitates lacking PP2A than in complexes containing the phosphatase: 30%
PP2A
  co-immunoprecipitation with OA-sensitive phosphatase activity: not
